Data from patent publication US20150315252A1.

Target: CherryPicker DmrA chimeric protein
Experiment: cell-based or functional assay

- amount of AcGFP-DmrC in microvesicles produced with A/C heterodimerizer (western blot against AcGFP standards): 5 ng/µL
- amount of AcGFP-DmrC in microvesicles produced without A/C heterodimerizer (western blot against AcGFP standards): 0.6 ng/µL
- packaging efficiency of AcGFP-DmrC into microvesicles, +A/C against -A/C: 8 fold
Substance: AcGFP-DmrC fusion protein
